Patent publication US20120039915A1

Molecular target: antigen bound by the GC4 antibody on GBM tumor sphere cells (target antigen not determined)
Test: FACS on GBM tumor sphere cells at RT, MFI fitted (apparent dissociation constant)

Kd: 79.7 nM
B1: recombinant human GC4 IgG1 (antibody, V domains shown)
VH: QVQLVESGGGLVQPGGSLRLSCAASGFTFGTYDMSWVRQAPGKGLEWVSGISGSGGSTYYADSVKGRFTISRDNSKNTVYLQMNSLRVEDTAVYYCARGGWYSDNWGQGTLVTVSS
VL: SELTQDPAVSVALGQTVRITCQGGSLRSYYASWYQQKPGQAPLLVIYGENNRPSGIPDRFSGSSSGNTASLTITGAQAEDEADYYCHSRDSSGNHVVFGGGTKLTV
